# Laboratory results taken from patent US20040192610A1.
# Biological target: rat neuronal nicotinic acetylcholine receptor, α7 subtype (rat) (UniProt Q05941)
# Test: cell-based or functional assay
# Chain of UniProt Q05941 (Q05941 23-502): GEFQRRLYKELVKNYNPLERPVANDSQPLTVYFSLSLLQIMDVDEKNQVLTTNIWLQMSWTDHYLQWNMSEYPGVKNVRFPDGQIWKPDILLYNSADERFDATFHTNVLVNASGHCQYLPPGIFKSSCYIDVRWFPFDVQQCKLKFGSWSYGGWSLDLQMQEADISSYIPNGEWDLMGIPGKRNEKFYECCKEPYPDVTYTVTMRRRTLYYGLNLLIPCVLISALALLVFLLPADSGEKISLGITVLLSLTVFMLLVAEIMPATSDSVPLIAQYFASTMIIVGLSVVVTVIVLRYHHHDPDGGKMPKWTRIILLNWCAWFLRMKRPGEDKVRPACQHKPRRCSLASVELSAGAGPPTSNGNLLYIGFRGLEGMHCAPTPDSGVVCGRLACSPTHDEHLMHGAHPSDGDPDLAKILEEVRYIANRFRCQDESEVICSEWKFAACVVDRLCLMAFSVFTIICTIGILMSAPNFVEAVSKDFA
substance,measurement,value
α-conotoxin peptide PnIA,IC50 of antagonistic activity (oocyte electrophysiology),229 nmol
